Measurements taken from publication PMC6625990, “Structural underpinnings of Ric8A function as a G-protein α-subunit chaperone and guanine-nucleotide exchange factor” (Nature Communications, 2019).
Residue numbers refer to the chain shown, from its start. Names may count otherwise. Like-named read-outs stand apart in the source and are kept apart here.

What was measured:
[1] = DSF thermostability of Ric8A constructs and Ric8A1–492 mutants (protein alone); type: physicochemical, bovine; details: DSF; for Tm: Sypro Orange, protein alone 0.5 mg/ml, 20 mM Tris-HCl pH 7.5, 150 mM KCl, 5% glycerol, 1 mM TCEP, 1 °C/minute, mean ± SD (n = 3); for mean Tm / Tm (C ): protein alone, source data; for mean Tm: mean of replicates
Procedure: Stabilities of Ric8A constructs with and without peptide ligands were assessed using differential scanning fluorimetry (DSF), in which an increase in fluorescence of the Sypro Orange dye is measured. Ric8A1–492, Ric8A1–452 and Ric8A1–426 in 20 mM Tris-HCl (pH 7.5) buffer containing 150 mM KCl, 5% glycerol, and 1 mM TCEP with and without peptide were used at a final concentration of 0.5 mg/ml and were supplemented with a 1000-fold dilution of Sypro Orange dye (Invitrogen). Temperature was increased at 1 °C/minute and fluorescence signals were recorded using real-time PCR (C1000 Touch thermal cycler, Bio Rad), with the cycler set to FRET mode and the excitation wavelength set at 450–490 nm and the emission wavelength at 560–580 nm.

Gαt333–350 = assay: BLI: Ric8A1–492 and its mutants binding to biotinylated Gαt333–350; details: for Kd: BLI steady state, source data
Procedure: (§1) An Octet RED96 system and streptavidin (SA)-coated biosensors (FortéBio, Menlo Park, CA) were used to measure association and dissociation kinetics for Gα peptides or the full-length Avi-tagged Gαt in relation to Ric8A1–492, Ric8A1–452, and Ric8A1–426. To obtain the Avi-tagged Gαt, Gαt was cloned into modified pET21a vector with the N-terminal His6-tag followed by the Avi tag and TEV cleavage site[59]. The Avi-tagged I340Q/N343H mutant of Gαt was prepared by QuikChange protocol. BL21(DE3) cells for expression of the Avi-tagged Gαt were grown in 2TY media supplemented with biotin (10 mg/liter), induced at OD600 of 0.6 with 50 µM IPTG and further grown overnight at 16 °C. Binding studies were performed in 20 mM Tris, 150 mM KCl, 5% glycerol, 1 mM TCEP, 0.5 mg/ml BSA, pH 8.0. All steps were performed at 26 °C, with biosensors stirred into 0.2 ml of sample in each well at 1000 rpm, and at a data acquisition rate of 5.0 Hz. N-terminally biotinylated Gαt333–350, Gαs363–380, C1 peptide and C2 peptide were loaded onto SA sensors at a concentration of 0.05, 0.05, 0.005, and 0.01 mg/ml for 40–90 seconds. Data for association and dissociation phases of the assay were collected as shown in Fig. 1b and Supplementary Figs. 8, 11, 12, and 14. To correct for baseline drift and non-specific binding, reference sensors lacking bound Gα peptide were used in the BLI assays with Ric8A proteins at the highest concentrations. Kinetic data fitting was performed using FortéBio Data Analysis software 10.0. For each concentration of Ric8A1–492, dissociation rate constant (kd) values were calculated from the corresponding dissociation phases of the curves. These kd values were used to calculate the association rate constant (ka) values from the association phases for each concentration according to the equation1 ka=kobserved-kd∕Ric8A1-492 The average ka and kd were calculated as means of the individual ka and kd values for all curves. Equilibrium dissociation constant KD was calculated as mean kd/mean ka. Steady-state data fitting was performed using the GraphPad Prism 7 software with the equation for one site specific binding.

Gαt [2] = assay: BLI: Ric8A1–492 and its mutants binding to full-length Avi-tagged Gαt; details: BLI steady state, source data
Procedure: as §1

Gαi = assay: GTPγS binding to Gαi (GDP/GTPγS exchange, GEF activity of Ric8A constructs); type: biochemical; details: for Rate of GDP/GTPγS exchange reaction on Gαi, mean: Gαi 1 µM, GDP 1 µM, Ric8A construct 1 µM, GTPγS 10 µM, 20 mM Tris-HCl pH 8.0, 150 mM NaCl, 5% glycerol, 1 mM TCEP, 10 mM MgCl2, tryptophan fluorescence ex 295 nm, em 340 nm, one phase association fit; for Rate of GDP/GTPγS exchange reaction on Gαi: same conditions
Procedure: The rates of GTPγS binding to Gαi in the absence or presence of Ric8A1–492 (Ric8A1–452) were measured by following the increase in fluorescence of Gαi tryptophan. Gαi (1 µM) was mixed with GDP (1 µM) in a fluorescence cuvette, in 20 mM Tris-HCl (pH 8.0) buffer containing 150 mM NaCl, 5% glycerol, 1 mM TCEP and 10 mM MgCl2, and incubated for 2 min. The binding reaction was initiated by addition of Ric8A1–492 or Ric8A1–452 (1 µM each) and/or and GTPγs (10 µM). Fluorescence at 340 nm was monitored with the excitation set at 295 nm. Data were fit to an equation for one phase association using the GraphPad Prism 7.05 software.

Gαt [3] = assay: SEC co-migration of Ric8A1–492 R75M mutant with full-length Gαt; type: binding
Procedure: Ric8A1–492/miniGαi complex was prepared by mixing Ric8A with miniGαi at a 1:1.5 molar ratio. The complex was purified by SEC using a HiLoad 16/600 Superdex 200 pg column equilibrated with 20 mM Tris-HCl (pH 8.0) buffer containing 150 mM KCl, 5% glycerol, and 1 mM TCEP. This procedure removed excess miniGαi, ensuring 1:1 stoichiometry of the complex. Ric8A1–492/Gαt complexes were purified by mixing Ric8A1–492 with Gαt (1:1.5 molar ratio), followed by SEC using Superdex 200 10/300 GL column (GE healthcare) to remove excess Gαt. […]
with Gαt. (A) Ric8A1-492 was mixed with Gαt and loaded onto a MW-calibrated Superdex 200 10/300 column. SEC profile - black curve. Blue curve and a gel in the inset with a blue outline represent SEC profile of Ric8A1-492 alone. Red curve and a gel in the inset with a red outline represent SEC profile of Gαt alone. (B) Peak fractions in A analyzed by SDS-PAGE. Peak 1 containing the Ric8A1-492/Gαt complex is not fully resolved from peak 2 corresponding to Ric8A1-492 alone. (C) The R75M mutant of Ric8A1-492 was mixed with Gαt and loaded onto a MW-calibrated Superdex 200 16/600 column. SEC profile - black curve. Blue line and a gel in inset represent SEC profile of R75M alone. Red curve – SEC profile of Gαt alone. (D) Peak fractions in C analyzed by SDS-PAGE. […]

B1: Ric8A1–492: bovine Ric8A construct truncated at the C-terminus (residues 1–492) (protein)
chain: MEPRAVADALETGEEDVVMEALRAYNRENSQSFTFDDAQQEDRKRLAKLLVSVLEQGLPPSRRVIWLQSIRILSRDRSCLDSFTSRRSLQALACYAGISASQGSVPEPLNMDVVLESLKCLCNLVLSSPVAQALAAEAGLVVRLAERVGLCRQSSFPHDVQFFDLRLLFLLTALRTDVRQQLFQELQGVRLLTRALELTLGMTEGERHPELLPPQETERAMEILKVLFNITFDSIKREVDEEDAALYRHLGTLLRHCVMLAAAGDRTEELHGHAVNLLGNLPVKCLDVLLTLEPHEGSLEFLGVNMDVIRVLLSFMEKRLHQTHRLKESVAPVLSVLTECARMHRPARKFLKAQVLPPLRDVRTRPEVGELLRNKLVRLMTHLDTDVKRVAAEFLFVLCSESVPRFIKYTGYGNAAGLLAARGLMAGGRPEGQYSEDEDTDTDEYKEAKASINPVTGRVEEKPPNPMEGMTEEQKEHEAMKLVNMFDKLSRH
modifications: left off: His6, N-terminal, state not stated
With B1 as the molecule, how does the Tm [1] read?
The Tm was 46.8 ± 0.2 °C.

And the “mean Tm” value [1]?
Its value is 46.8 C.

And the “Tm (C )” value ([1]; replicate 1)?
The value was 46.9 C.

What about the “Tm (C )” value ([1]; replicate 2) of the same molecule?
Its value is 46.96 C.

And the “Tm (C )” value ([1]; replicate 3)?
Its value is 46.7 C.

What about the Kd (Gαt333–350; experiment 1, read-out: KD (uM), Gαt333-350) of the same molecule?
Its Kd is 0.27 µM.

And the Kd (Gαt333–350; experiment 2, read-out: KD (uM), Gαt333-350)?
Its Kd is 0.33 µM.

And the Kd (Gαt333–350; experiment 3, read-out: KD (uM), Gαt333-350)?
Its Kd is 0.33 µM.

And the Kd (Gαt333–350; experiment 4, read-out: KD (uM), Gαt333-350)?
The Kd was 0.19 µM.

And the Kd (Gαt333–350; mean of replicates, read-out: Mean KD, Gαt333-350)?
The Kd was 0.28 µM.

What about the Kd (Gαt333–350; representative experiment, read-out: KD, steady-state curve of Figure 1c) of the same molecule?
Its Kd is 0.27 µM.

What about the Kd (Gαt [2]; experiment 1, read-out: KD (nM), Gαt) of the same molecule?
The Kd was 22.6 nM.

And the Kd (Gαt [2]; experiment 2, read-out: KD (nM), Gαt)?
Its Kd is 27 nM.

What about the Kd (Gαt [2]; experiment 3, read-out: KD (nM), Gαt) of the same molecule?
Its Kd is 23.1 nM.

And the Kd (Gαt [2]; mean of replicates, read-out: mean KD, Gαt)?
The Kd was 24.2 nM.

And the “Rate of GDP/GTPγS exchange reaction on Gαi, mean” value (Gαi)?
The value was 0.3229.

What about the “Rate of GDP/GTPγS exchange reaction on Gαi” value (Gαi; replicate 1) of the same molecule?
The value was 0.2658.

What about the “Rate of GDP/GTPγS exchange reaction on Gαi” value (Gαi; replicate 2) of the same molecule?
The value was 0.38.

B2: R75M: R75M mutant of Ric8A1–492 (protein, UniProt Q5E9J8 1-492, looked up, variant R75M)
chain: B1 chain with R75M
modifications: residues 1-492
For B2, which “interaction with full-length Gαt (in words)” value (Gαt [3]) is on record?
The value was “disruption of the interaction”.

And the “mean Tm” value [1]?
Its value is 45.9 C.

What about the “Tm (C )” value ([1]; replicate 1) of the same molecule?
The value was 45.86 C.

And the “Tm (C )” value ([1]; replicate 2)?
Its value is 45.81 C.

What about the “Tm (C )” value ([1]; replicate 3) of the same molecule?
Its value is 45.88 C.

And the “Tm (C )” value ([1]; replicate 4)?
The value was 45.96 C.

What about the “binding to Gαt333–350 (in words)” value (Gαt333–350; BLI) of the same molecule?
Its value is “ablated the binding”.

B3: Ric8A1–452: bovine Ric8A construct, residues 1–452 (protein)
chain: MEPRAVADALETGEEDVVMEALRAYNRENSQSFTFDDAQQEDRKRLAKLLVSVLEQGLPPSRRVIWLQSIRILSRDRSCLDSFTSRRSLQALACYAGISASQGSVPEPLNMDVVLESLKCLCNLVLSSPVAQALAAEAGLVVRLAERVGLCRQSSFPHDVQFFDLRLLFLLTALRTDVRQQLFQELQGVRLLTRALELTLGMTEGERHPELLPPQETERAMEILKVLFNITFDSIKREVDEEDAALYRHLGTLLRHCVMLAAAGDRTEELHGHAVNLLGNLPVKCLDVLLTLEPHEGSLEFLGVNMDVIRVLLSFMEKRLHQTHRLKESVAPVLSVLTECARMHRPARKFLKAQVLPPLRDVRTRPEVGELLRNKLVRLMTHLDTDVKRVAAEFLFVLCSESVPRFIKYTGYGNAAGLLAARGLMAGGRPEGQYSEDEDTDTDEYKEAKASI
modifications: left off: His6, N-terminal, state not stated
For B3, which Tm [1] is on record?
Its Tm is 45.5 ± 0.1 °C.

And the Tm ([1]; listed as Ric8A1-452)?
Its Tm is 45.5 °C.

And the “Rate of GDP/GTPγS exchange reaction on Gαi, mean” value (Gαi)?
The value was 0.03238.

And the “Rate of GDP/GTPγS exchange reaction on Gαi” value (Gαi; replicate 1)?
The value was 0.03221.

What about the “Rate of GDP/GTPγS exchange reaction on Gαi” value (Gαi; replicate 2) of the same molecule?
Its value is 0.04368.

And the “Rate of GDP/GTPγS exchange reaction on Gαi” value (Gαi; replicate 3)?
Its value is 0.02126.
